Test results: the supplement of paper PMC11908140

B1: library; numbered along this chain (parent)
chain: MRKPRAAVGSGHRKQAASQEGRQKHAKNNSQAKPSACDGLARQPEEVVLQASVSSYHLFRDVAEVTAFRGSLLSWYDQEKRDLPWRRRAEDEMDLDRRAYAVWVSEVMLQQTQVATVINYYTGWMQKWPTLQDLASASLEEVNQLWAGLGYYSRGRRLQEGARKVVEELGGHMPRTAETLQQLLPGVGRYTAGAIASIAFGQATGVVDGNVARVLCRVRAIGADPSSTLVSQQLWGLAQQLVDPARPGDFNQAAMELGATVCTPQRPLCSQCPVESLCRARQRVEQEQLLASGSLSGSPDVEECAPNTGQCHLCLPPSEPWDQTLGVVNFPRKASRKPPREESSATCVLEQPGALGAQILLVQRPNSGLLAGLWEFPSVTWEPSEQLQRKALLQELQRWAGPLPATHLRHLGEVVHTFSHIKLTYQVYGLALEGQTPVTTVPPGARWLTQEEFHTAAVSTAMKKVFRVYQGQQPGTCMGSKRSQVSSPCSRKKPRMGQQVLDNFFRSHISTDAHSLNSAAQ

Variants of: B1
Test: 8OG:A repair function score (normalized; synonymous = 0, nonsense = -1) (normalized log-likelihood score); higher = more repair activity (WT-like)
Conditions: with 8OG:A DNA repair reporter (GFP) in HEK-293 MUTYH KO cells
Outline: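 With 10 pg/ml doxycycline, MUTYH knockout HEK-293 cells carrying lentiviral MUTYH cDNA NNN codon-scan libraries were co-transfected with mCherry and an 8OG:A GFP repair reporter. Viable mCherry+ cells were sorted into GFP+ (repair) and GFP− bins at 72 h, three replicates per tile, and tile amplicons were sequenced. Per-tile Rosace fitness scores were then normalized into a repair function score anchored on synonymous and nonsense distributions. Medians were fixed at 0 for synonymous and -1 for nonsense, excluding variants under 300 counts per million at the start.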

Row | Variant | 8OG:A repair function score
1 | MRKPRAAVGSGHRKQAASQEGRQKHAKNNSQAKPSACDGLARQPEEVVLQASVCSYHLFRDVAEVTAFRGSLLSWYDQEKRDLPWRRRAEDEMDLDRRAYAVWVSEVMLQQTQVATVINYYTGWMQKWPTLQDLASASLEEVNQLWAGLGYYSRGRRLQEGARKVVEELGGHMPRTAETLQQLLPGVGRYTAGAIASIAFGQATGVVDGNVARVLCRVRAIGADPSSTLVSQQLWGLAQQLVDPARPGDFNQAAMELGATVCTPQRPLCSQCPVESLCRARQRVEQEQLLASGSLSGSPDVEECAPNTGQCHLCLPPSEPWDQTLGVVNFPRKASRKPPREESSATCVLEQPGALGAQILLVQRPNSGLLAGLWEFPSVTWEPSEQLQRKALLQELQRWAGPLPATHLRHLGEVVHTFSHIKLTYQVYGLALEGQTPVTTVPPGARWLTQEEFHTAAVSTAMKKVFRVYQGQQPGTCMGSKRSQVSSPCSRKKPRMGQQVLDNFFRSHISTDAHSLNSAAQ [S54C] | 0.00525
2 | MRKPRAAVGSGHRKQAASQEGRQKHAKNNSQAKPSACDGLARQPEEVVLQASVSSYHLFRDVAEVTAFRGSLLSWYDQEKRDLPWRRRAEDEMDLDRRAYAVWVSEVMLQQTQVATVINYYTGWMQKWPTLQDLASASLEEVNQLWAGLGYYSRGRRLQEGARKVVEELGGHMPRTAETLQQLLPGVGRYTAGAIASIAFGQATGVVDGNVARVLCRVRAIGADPSSTLVSQQLWGLAQQLVDPARPGDFNQAAMELGATVCTPQRPLCSQCPVESLCRARQRVEQEQLLASGSLSGSPDVEECAPNTGQCHLCLPPSEPWDQTLGVVNFPRKASRKPPREESSATCVLEQPGALGAQILLVQRPNSGLLAGLWEFPSVTWEPSEQLQRKALLQELQRWAGPLPATHLRHLGEVVHTFSHIKLTYQVYGLALEGQTPVTTVPPGARWLTQEEFHTAAVSDAMKKVFRVYQGQQPGTCMGSKRSQVSSPCSRKKPRMGQQVLDNFFRSHISTDAHSLNSAAQ [T460D] | -0.312
3 | MRKPRAAVGSGHRKQAASQEGRQKHAKNNSQAKPSACDGLARQPEEVVLQASVSSYHLFRDVAEVTAFRGSLLSWYDQEKRDLPWRRRAEDEMDLDRRAYAVWVSEVMLQQTQVATVINYYTGWMQKWPTLQDLASASLEEVNQLWAGLGYYSRGRRLQEGARKVVEELGGHMPRTAETLQQLLPGVGRYTAGAIASIAFGQATGVVDGNVARVLCRVRAIGADPSSTLVSQQLWGLAQQLVDPARPGDFNQAAMELGATVCTPQRPLCSQCPVESLCRARQRVEQEQLLASGSLSGSPDVEECAPNTGQCHLCLPPSEPWDQTLGVVNFPRKASRKPPREESSATCVLEQPGALGAQILLVQRPNSGLLAGLWEFPSVTWEPSEQLQRKALLQELQRWAGPLPATHLRHLGEVVHTFSHIKLTYQVYGLALEGQTPVTTVRPGARWLTQEEFHTAAVSTAMKKVFRVYQGQQPGTCMGSKRSQVSSPCSRKKPRMGQQVLDNFFRSHISTDAHSLNSAAQ [P442R] | -0.0654
4 | MRKPRAAVGSGHRKQAASQEGRQKHAKNNSQAKPSACDGLARQPEEVVLQASVSSYHLFRDVAEVTAFRGSLLSWYDQEKRDLPWRRRAEDEMDLDRRAYAVWVSEVMLQQTQVATVINYYTGWMQKWPTLQDLASASLEEVNQLWAGLGYYSRGRRLQEGARKVVEELGGHMPRTAETLQQLLPGVGRYTAGAIASIAFGQATGVVDGNVARVLCRVRAIQADPSSTLVSQQLWGLAQQLVDPARPGDFNQAAMELGATVCTPQRPLCSQCPVESLCRARQRVEQEQLLASGSLSGSPDVEECAPNTGQCHLCLPPSEPWDQTLGVVNFPRKASRKPPREESSATCVLEQPGALGAQILLVQRPNSGLLAGLWEFPSVTWEPSEQLQRKALLQELQRWAGPLPATHLRHLGEVVHTFSHIKLTYQVYGLALEGQTPVTTVPPGARWLTQEEFHTAAVSTAMKKVFRVYQGQQPGTCMGSKRSQVSSPCSRKKPRMGQQVLDNFFRSHISTDAHSLNSAAQ [G222Q] | -0.443
5 | MRKPRAAVGSGHRKQAASQEGRQKHAKNNSQAKPSACDGLARQPEEVVLQASVSSYHLFRDVAEVTAFRGSLLSWYDQEKRDLPWRRRAEDEMDLDRRAYAVWVSEVMLQQTQVATVINYYTGWMQKWPTLQDLASASLEEVNQLWAGLGYYSRGRRLQEGARKVVEELGGHMPRTAETLQQLLPGVGRYTAGAIASIAFGQATGVVDGNVARVLCRVRAIGADPSSTLVSQQLWGLAQQLVDPARPGDFNQAAMELGATVCTPQRPLCSQCPVESLCRARQRVEQEQLLASGSLSGSPDVEECAPGTGQCHLCLPPSEPWDQTLGVVNFPRKASRKPPREESSATCVLEQPGALGAQILLVQRPNSGLLAGLWEFPSVTWEPSEQLQRKALLQELQRWAGPLPATHLRHLGEVVHTFSHIKLTYQVYGLALEGQTPVTTVPPGARWLTQEEFHTAAVSTAMKKVFRVYQGQQPGTCMGSKRSQVSSPCSRKKPRMGQQVLDNFFRSHISTDAHSLNSAAQ [N307G] | -0.0226
6 | MRKPRAAVGSGHRKQAASQEGRQKHAKNNSQAKPSACDGLARQPEEVVLQASVSSYHLFRDVAEVTAFRGSLLSWYDQEKRDLPWRRRAEDEMDLDRRAYAVWVSEVMLQQTQVATVINYYTGWMQKWPTLQDLASASLEEVNQLWAGLGYYSRGRRLQEGARKVVEELGGHMPRTAETLQQLLPGVGRYTAGAIASIAFGQATGVVDGNVARVLCRVRAIGADPSSTLVSQQLWGLAFQLVDPARPGDFNQAAMELGATVCTPQRPLCSQCPVESLCRARQRVEQEQLLASGSLSGSPDVEECAPNTGQCHLCLPPSEPWDQTLGVVNFPRKASRKPPREESSATCVLEQPGALGAQILLVQRPNSGLLAGLWEFPSVTWEPSEQLQRKALLQELQRWAGPLPATHLRHLGEVVHTFSHIKLTYQVYGLALEGQTPVTTVPPGARWLTQEEFHTAAVSTAMKKVFRVYQGQQPGTCMGSKRSQVSSPCSRKKPRMGQQVLDNFFRSHISTDAHSLNSAAQ [Q239F] | -0.526
7 | MRKPRAAVGSGHRKQAASQEGRQKHAKNNSQAKPSACDGLARQPEEVVLQASVSSYHLFRDVAEVTAFRGSLLSWYDQEKRDLPWRRRAEDEMDLDRRAYAVWVSEVMLQQTQVATVINYYTGWMQKWPTLQDLASASLEEVNQLWAGLGYYSRGRRLQEGARKVVEELGGHMPRTAETLQQLLPGVGRYTAGAIASIAFGQATGVVDGNVARVLCRVRAIGADPSSTLVSQQLWGLAQQLVDPARPGDFNQAAMELGATVCTPQRPLCSQCPVESLCRARQRVEQEQLLASGSLSGSPDVEECAPNTGQCHLCLPPSEPWDQTLGVVNFPRKASRKPPREESSATCVLEQPGALGAQILLVQRPNSGLLAGLWEFPSVTWEPSEQLQRKALLQELQRWAGPLPATHLRHLGEVVHTFSHIKLTYQVYGLALEGQTPVTTVPPGARWLTQEEFHTAAVSTAMKKVFRVYQGQQPGTCMGSKRSQVSSPCSRKKPRMGQQVQDNFFRSHISTDAHSLNSAAQ [L501Q] | 0.02
8 | MRKPRAAVGSGHRKQAASQEGRQKHAKNNSQAKPSACDGLARQPEEVVLQASVSSYHLFRDVAEVTAFRGSLLSWYDQEKRDLPWRRRAEDEMDLDRRAYAVWVSEVMLQQTQVATVINYYTGWMQKWPTLQDLASASLEEVNQLWAGLGYYSRGRRLQEGARKVVEELGGHMPRTAETLQQLLPGVGRYTAGAIASIAFGQATGVVDGNVARVLCRVRAIGADPSSTLVSQQLWGLAQQLVDPARPGDFNQAAMELGATVCTPQRPLCSQCPVESLCRARQRVEQEQLLASGSLSGSPDVEECAPNTGQCHLCLPPSLPWDQTLGVVNFPRKASRKPPREESSATCVLEQPGALGAQILLVQRPNSGLLAGLWEFPSVTWEPSEQLQRKALLQELQRWAGPLPATHLRHLGEVVHTFSHIKLTYQVYGLALEGQTPVTTVPPGARWLTQEEFHTAAVSTAMKKVFRVYQGQQPGTCMGSKRSQVSSPCSRKKPRMGQQVLDNFFRSHISTDAHSLNSAAQ [E319L] | 0.0108
9 | MRKPRAAVGSGHRKQAASQEGRQKHAKNNSQAKPSACDGLARQPEEVVLQASVSSYHLFRDVAEVTAFRGSLLSWYDQEKRDLPWRRRAEDEMDLDRRAYAVWVSEVMLQQTQVATVINYYTGWMQKWPTLQDLASASLEEVNQLWAGLGYYSRGRRLQEGARKVVEELGGHMPRTAETLQQLLPGVGRYTAGAIASIAFGQATGVVDGNVARVLCRVRAIGADPSSTLVSQQLWGLAQQLVDPARPGDFNQAAMELGATVCTPQRPLCSQCPVESLCRARQRVEQEQLLASGSLSGSPDVEECAPNTGQCHLCLPPSEPWDQTLGVVNFPRKASRKPPREESSATCVLEQPGALGAQILLVQRPNSGLLAGLWEFPSVTWEPSEQLQRKALLQELQRWAGPLPATHLRHLGEVVHTKSHIKLTYQVYGLALEGQTPVTTVPPGARWLTQEEFHTAAVSTAMKKVFRVYQGQQPGTCMGSKRSQVSSPCSRKKPRMGQQVLDNFFRSHISTDAHSLNSAAQ [F418K] | -0.75
10 | MRKPRAAVGSGHRKQAASQEGRQKHAKNNSQAKPSACDGLARQPEEVVLQASVSSYHLFRDVAEVTAFRGSLLSWYDQEKRDLPWRRRAEDEMDLDRRAYAVWVSEVMLQQTQVATVINYYTGWMQKWPTLQDLASASLEEVNQLWAGLGYYSRGRRLQEGARKVVEELGGHMPRTAETLQQLLPGVGRYTAGAIASIAFGQATGVVDGNVARVLCRVRAIGADPSSTLVSQQLWGLAQQLVDPARPGDFNQAAMELGATVCTPQRPLCSQCPVESLCRARQRVEQEQLLASGSLSGSPDVEECAPNTGQCHLCLPPSEPWDQTLGVVNFPRKASRKPPREESSATCVLEQPGALGAQILLVQRPNSGLLAGLWEFPSVTWEPSEQLQRKALLQELQRWAGPLPATHLRHLGEVVHTFSHIKLTYQVYGLALEGQTPVTTVPPWARWLTQEEFHTAAVSTAMKKVFRVYQGQQPGTCMGSKRSQVSSPCSRKKPRMGQQVLDNFFRSHISTDAHSLNSAAQ [G444W] | -0.444
11 | MRKPRAAVGSGHRKQAASQEGRQKHAKNNSQAKPSACDGLARQPEEVVLQASVSSYHLFRDVAEVTAFRGSLLSWYDQEKRDLPWRRRAEDEMDLDRRAYAVWVSEVMLQQTQVATVINYYTGWMQKWPTLQDLASASLEEVNQLWAGLGYYSRGRRLQEGARKVVEELGGHMPRTAETLQQLLPGVGRYTAGAIASIAFGQATGVVDGNVARVLCRVRAIGADPSSTLVSQQLWGLAQQLVDPARPGDFNQAAMELGATVCTPQRPLCSQCPVESLCRARQRVEQEQLLASGSLSGSPDVEECLPNTGQCHLCLPPSEPWDQTLGVVNFPRKASRKPPREESSATCVLEQPGALGAQILLVQRPNSGLLAGLWEFPSVTWEPSEQLQRKALLQELQRWAGPLPATHLRHLGEVVHTFSHIKLTYQVYGLALEGQTPVTTVPPGARWLTQEEFHTAAVSTAMKKVFRVYQGQQPGTCMGSKRSQVSSPCSRKKPRMGQQVLDNFFRSHISTDAHSLNSAAQ [A305L] | -0.00389
12 | MRKPRAAVGSGHRKQAASQEGRQKHAKNNSQAKPSACDGLARQPEEVVLQASVSSYHLFRDVAEVTAFRGSLLSWYDQEKRDLPWRRRAEDEMDLDRRAYAVWVSEVMLQQTQVATVINYYTGWMQKWPTLQDLASASLEEVNQLWAGLGYYSRGRRLQEGARKVVEELGGHMPRTAETLQQLLPGVGRYTAGAIASIAFGQATGVVDGNVARVLCRVRAIGADPSSTLVSQQLWGLAQQLVDPARPGDFNQAAMELGATVCTPQRPLCSQCPVESLCRARQRVEQEQLLASGSLSGSPDVEECAPNTGQCHLCTPPSEPWDQTLGVVNFPRKASRKPPREESSATCVLEQPGALGAQILLVQRPNSGLLAGLWEFPSVTWEPSEQLQRKALLQELQRWAGPLPATHLRHLGEVVHTFSHIKLTYQVYGLALEGQTPVTTVPPGARWLTQEEFHTAAVSTAMKKVFRVYQGQQPGTCMGSKRSQVSSPCSRKKPRMGQQVLDNFFRSHISTDAHSLNSAAQ [L315T] | -0.0895
